Assay results reported in patent US20120164137A1 (MORPHOTEK, published 2012).

How the values were obtained:
[1] = target: T1, Human FRA on IGROV-1 human ovarian adenocarcinoma cells (human, UniProt P15328 25-234); assay: cell-based or functional assay
[2] = target: T1, Human FRA on IGROV-1 human ovarian …; assay: cell-based or functional assay; remark: listed apart in the source
[3] = target: T1, Human FRA on IGROV-1 human ovarian …; assay: cell-based or functional assay; remark: listed apart in the source
[4] = target: T2, Recombinant human folate receptor alpha (FRA) (human, UniProt P15328 25-234); assay: SPR, FRA on CM5 chip, parallel line analysis; reference standard = 100%
T2 construct: Immobilised on a CM5 chip by amine coupling; also called FR-alpha
T2 sequence (P15328 25-234 limits assumed): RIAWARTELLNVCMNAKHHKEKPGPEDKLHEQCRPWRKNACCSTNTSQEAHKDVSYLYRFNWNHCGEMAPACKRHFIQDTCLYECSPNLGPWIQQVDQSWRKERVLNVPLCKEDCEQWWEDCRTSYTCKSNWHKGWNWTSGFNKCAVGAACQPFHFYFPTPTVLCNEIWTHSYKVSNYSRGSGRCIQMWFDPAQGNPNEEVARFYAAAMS
Experimental: The surface was regenerated between cycles by flushing with 10 mM glycine pH 2.0.

T1 sequence (P15328 25-234 limits assumed): as above

B1: MORAb-003 anti-FRA antibody reference standard (antibody, human IgG1, kappa, V domains shown)
VH: EVQLVESGGGVVQPGRSLRLSCSASGFTFSGYGLSWVRQAPGKGLEWVAMISSGGSYTYYADSVKGRFAISRDNAKNTLFLQMDSLRPEDTGVYFCARHGDDPAWFAYWGQGTPVTVSS
VL: DIQLTQSPSSLSASVGDRVTITCSVSSSISSNNLHWYQQKPGKAPKPWIYGTSNLASGVPSRFSGSGSGTDYTFTISSLQPEDIATYYCQQWSSYPYMYTFGQGTKVEIKR
modifications: N-linked neutral glycans at Asn299 in SEQ ID NO: 5
IC50 (Hum-ZAP secondary immunotoxin killing of IGROV-1 cells) [1]: 14 ng·mL | Internalization IC50 [2]: 0.014 µg/mL

B2: MORAb-003 anti-FRA antibody, lot NB809-68 (high CO2; harvested 13 days after initiation of culture) (antibody, human IgG1, kappa, V domains shown)
VH: B1 VH
VL: B1 VL
modifications: N-linked neutral glycans at Asn299 in SEQ ID NO: 5
IC50 (Hum-ZAP secondary immunotoxin killing of IGROV-1 cells) [1]: 28 ng·mL | INTL % (0 Min) [3]: 0% | INTL % (15 min) [3]: 4% | INTL % (30 min) [3]: 14% | INTL % (60 min) [3]: 36% | INTL % (150 min) [3]: 52% | Half-Maximal Internalization Constant [2]: 46.5 min | Internalization IC50 [2]: 0.028 µg/mL | Measured Potency (%) [4]: 50.5%

B3: MORAb-003 anti-FRA antibody, lot NB809-70 (CuCl supplement; harvested 13 days after initiation of culture) (antibody, human IgG1, kappa, V domains shown)
VH: B1 VH
VL: B1 VL
modifications: N-linked neutral glycans at Asn299 in SEQ ID NO: 5
IC50 (Hum-ZAP secondary immunotoxin killing of IGROV-1 cells) [1]: 27 ng·mL | INTL % (0 Min) [3]: 0% | INTL % (15 min) [3]: 6% | INTL % (30 min) [3]: 16% | INTL % (60 min) [3]: 37% | INTL % (150 min) [3]: 58% | Half-Maximal Internalization Constant [2]: 53.3 min | Internalization IC50 [2]: 0.027 µg/mL | Measured Potency (%) [4]: 48%

B4: MORAb-003 anti-FRA antibody, lot NB810-10 (positive control; harvested 14 days after initiation of culture) (antibody, human IgG1, kappa, V domains shown)
VH: B1 VH
VL: B1 VL
modifications: N-linked neutral glycans at Asn299 in SEQ ID NO: 5
notes: also called Pos. ctl; positive control (round 1)
IC50 (Hum-ZAP secondary immunotoxin killing of IGROV-1 cells) [1]: 1630 ng·mL | INTL % (0 Min) [3]: 0% | INTL % (15 min) [3]: 4% | INTL % (30 min) [3]: 9% | INTL % (60 min) [3]: 32% | INTL % (150 min) [3]: 56% | Half-Maximal Internalization Constant [2]: 58.4 min | Internalization IC50 [2]: 1.63 µg/mL | Measured Potency (%) [4]: 85.5%

B5: MORAb-003 anti-FRA antibody, lot NB859-28 (low DO; harvested 14 days after initiation of culture) (antibody, human IgG1, kappa, V domains shown)
VH: B1 VH
VL: B1 VL
modifications: N-linked neutral glycans at Asn299 in SEQ ID NO: 5
notes: also called low DO (round 3)
INTL % (0 Min) [3]: 0% | INTL % (30 min) [3]: 19% | INTL % (60 min) [3]: 44% | INTL % (150 min) [3]: 53% | Half-Maximal Internalization Constant [2]: 36.5 min | Measured Potency (%) [4]: 44.5%

B6: MORAb-003 anti-FRA antibody, lot NB810-11 (galactose supplement; harvested 14 days after initiation of culture) (antibody, human IgG1, kappa, V domains shown)
VH: B1 VH
VL: B1 VL
modifications: N-linked neutral glycans at Asn299 in SEQ ID NO: 5
IC50 (Hum-ZAP secondary immunotoxin killing of IGROV-1 cells) [1]: 19 ng·mL | INTL % (0 Min) [3]: 0% | INTL % (15 min) [3]: 3% | INTL % (30 min) [3]: 6% | INTL % (60 min) [3]: 29% | INTL % (150 min) [3]: 50% | Half-Maximal Internalization Constant [2]: 56.6 min | Internalization IC50 [2]: 0.019 µg/mL | Measured Potency (%) [4]: 84.7%

B7: MORAb-003 anti-FRA antibody, lot NB859-27 (harvested 20 days after initiation of culture) (antibody, human IgG1, kappa, V domains shown)
VH: B1 VH
VL: B1 VL
modifications: N-linked neutral glycans at Asn299 in SEQ ID NO: 5
notes: also called Day 20 harvest
IC50 (Hum-ZAP secondary immunotoxin killing of IGROV-1 cells) [1]: 23 ng·mL | INTL % (0 Min) [3]: 0% | INTL % (15 min) [3]: 1% | INTL % (30 min) [3]: 19% | INTL % (60 min) [3]: 40% | INTL % (150 min) [3]: 51% | Half-Maximal Internalization Constant [2]: 37.3 min | Internalization IC50 [2]: 0.023 µg/mL | Measured Potency (%) [4]: 53.3%

B8: MORAb-003 anti-FRA antibody, lot NB809-66 (0.5 mM Na butyrate; harvested 13 days after initiation of culture) (antibody, human IgG1, kappa, V domains shown)
VH: B1 VH
VL: B1 VL
modifications: N-linked neutral glycans at Asn299 in SEQ ID NO: 5
IC50 (Hum-ZAP secondary immunotoxin killing of IGROV-1 cells) [1]: 15 ng·mL | INTL % (0 Min) [3]: 0% | INTL % (15 min) [3]: 3% | INTL % (30 min) [3]: 8% | INTL % (60 min) [3]: 31% | INTL % (150 min) [3]: 50% | Half-Maximal Internalization Constant [2]: 53.5 min | Internalization IC50 [2]: 0.015 µg/mL | Measured Potency (%) [4]: 61.5%

B9: MORAb-003 anti-FRA antibody, lot NB859-24 (harvested 10 days after initiation of culture) (antibody, human IgG1, kappa, V domains shown)
VH: B1 VH
VL: B1 VL
modifications: N-linked neutral glycans at Asn299 in SEQ ID NO: 5
notes: also called Day 10 harvest
IC50 (Hum-ZAP secondary immunotoxin killing of IGROV-1 cells) [1]: 15 ng·mL | INTL % (0 Min) [3]: 0% | INTL % (15 min) [3]: 1% | INTL % (30 min) [3]: 18% | INTL % (60 min) [3]: 40% | INTL % (150 min) [3]: 58% | Half-Maximal Internalization Constant [2]: 44.6 min | Internalization IC50 [2]: 0.015 µg/mL | Measured Potency (%) [4]: 33.8%

B10: MORAb-003 anti-FRA antibody, lot NB859-26 (harvested 17 days after initiation of culture) (antibody, human IgG1, kappa, V domains shown)
VH: B1 VH
VL: B1 VL
modifications: N-linked neutral glycans at Asn299 in SEQ ID NO: 5
notes: also called Day 17 harvest
IC50 (Hum-ZAP secondary immunotoxin killing of IGROV-1 cells) [1]: 36 ng·mL | INTL % (0 Min) [3]: 0% | INTL % (30 min) [3]: 23% | INTL % (60 min) [3]: 43% | INTL % (150 min) [3]: 56% | Half-Maximal Internalization Constant [2]: 36.6 min | Internalization IC50 [2]: 0.036 µg/mL | Measured Potency (%) [4]: 27.5%

B11: MORAb-003 anti-FRA antibody, lot NB810-13 (high osmolarity; harvested 14 days after initiation of culture) (antibody, human IgG1, kappa, V domains shown)
VH: B1 VH
VL: B1 VL
modifications: N-linked neutral glycans at Asn299 in SEQ ID NO: 5
IC50 (Hum-ZAP secondary immunotoxin killing of IGROV-1 cells) [1]: 990 ng·mL | INTL % (0 Min) [3]: 0% | INTL % (30 min) [3]: 17% | INTL % (60 min) [3]: 40% | INTL % (150 min) [3]: 62% | Half-Maximal Internalization Constant [2]: 49.6 min | Internalization IC50 [2]: 0.99 µg/mL | Measured Potency (%) [4]: 72.6%

B12: MORAb-003 anti-FRA antibody, lot NB859-25 (harvested 14 days after initiation of culture) (antibody, human IgG1, kappa, V domains shown)
VH: B1 VH
VL: B1 VL
modifications: N-linked neutral glycans at Asn299 in SEQ ID NO: 5
notes: also called Day 14 harvest; positive control (round 3)
IC50 (Hum-ZAP secondary immunotoxin killing of IGROV-1 cells) [1]: 32 ng·mL | INTL % (0 Min) [3]: 0% | INTL % (15 min) [3]: 1% | INTL % (30 min) [3]: 20% | INTL % (60 min) [3]: 44% | INTL % (150 min) [3]: 61% | Half-Maximal Internalization Constant [2]: 42 min | Internalization IC50 [2]: 0.032 µg/mL | Measured Potency (%) [4]: 51.9%

B13: MORAb-003 anti-FRA antibody, lot NB809-65 (positive control; harvested 13 days after initiation of culture) (antibody, human IgG1, kappa, V domains shown)
VH: B1 VH
VL: B1 VL
modifications: N-linked neutral glycans at Asn299 in SEQ ID NO: 5
notes: also called Pos. ctl; positive control (round 2)
IC50 (Hum-ZAP secondary immunotoxin killing of IGROV-1 cells) [1]: 14 ng·mL | INTL % (0 Min) [3]: 0% | INTL % (15 min) [3]: 3% | INTL % (30 min) [3]: 13% | INTL % (60 min) [3]: 33% | INTL % (150 min) [3]: 52% | Half-Maximal Internalization Constant [2]: 51.7 min | Internalization IC50 [2]: 0.014 µg/mL | Measured Potency (%) [4]: 49.7%

B14: MORAb-003 anti-FRA antibody, lot NB810-12 (low temperature; harvested 14 days after initiation of culture) (antibody, human IgG1, kappa, V domains shown)
VH: B1 VH
VL: B1 VL
modifications: N-linked neutral glycans at Asn299 in SEQ ID NO: 5
IC50 (Hum-ZAP secondary immunotoxin killing of IGROV-1 cells) [1]: 25 ng·mL | INTL % (0 Min) [3]: 0% | INTL % (15 min) [3]: 3% | INTL % (30 min) [3]: 21% | INTL % (60 min) [3]: 39% | INTL % (150 min) [3]: 55% | Half-Maximal Internalization Constant [2]: 41.2 min | Internalization IC50 [2]: 0.025 µg/mL | Measured Potency (%) [4]: 87.3%

B15: MORAb-003 anti-FRA antibody, lot NB809-69 (10 mM Na butyrate; harvested 13 days after initiation of culture) (antibody, human IgG1, kappa, V domains shown)
VH: B1 VH
VL: B1 VL
modifications: N-linked neutral glycans at Asn299 in SEQ ID NO: 5
IC50 (Hum-ZAP secondary immunotoxin killing of IGROV-1 cells) [1]: 24 ng·mL | INTL % (0 Min) [3]: 0% | INTL % (15 min) [3]: 4% | INTL % (30 min) [3]: 14% | INTL % (60 min) [3]: 36% | INTL % (150 min) [3]: 56% | Half-Maximal Internalization Constant [2]: 51.2 min | Internalization IC50 [2]: 0.024 µg/mL | Measured Potency (%) [4]: 49.3%

B16: MORAb-003 anti-FRA antibody, lot NB809-67 (low DO; harvested 13 days after initiation of culture) (antibody, human IgG1, kappa, V domains shown)
VH: B1 VH
VL: B1 VL
modifications: N-linked neutral glycans at Asn299 in SEQ ID NO: 5
IC50 (Hum-ZAP secondary immunotoxin killing of IGROV-1 cells) [1]: 29 ng·mL | INTL % (0 Min) [3]: 0% | INTL % (15 min) [3]: 3% | INTL % (30 min) [3]: 14% | INTL % (60 min) [3]: 34% | INTL % (150 min) [3]: 53% | Half-Maximal Internalization Constant [2]: 50.7 min | Internalization IC50 [2]: 0.029 µg/mL | Measured Potency (%) [4]: 56.2%
